Data taken from article PMC9303331, “Novel agonist and antagonist radioligands for the GLP‐2 receptor. Useful tools for studies of basic GLP‐2 receptor pharmacology” (British Journal of Pharmacology, 2022).
Read-outs that look alike come from different tables or passages of the source. Blank lines part the entries; values can stand above or below the molecule they belong to.

Experiments:
mGLP‐1 receptor [1] = molecular target: T1, mGLP‐1 receptor (mouse, UniProt O35659 22-463)
T1 construct: mouse glucagon-like peptide-1 receptor, pcDNA3.1(+) plasmid from ThermoFisher; also called mouse GLP‐1 receptor; source: COS-7, transiently transfected (pcDNA3.1(+)), on whole cells
T1 sequence (looked up): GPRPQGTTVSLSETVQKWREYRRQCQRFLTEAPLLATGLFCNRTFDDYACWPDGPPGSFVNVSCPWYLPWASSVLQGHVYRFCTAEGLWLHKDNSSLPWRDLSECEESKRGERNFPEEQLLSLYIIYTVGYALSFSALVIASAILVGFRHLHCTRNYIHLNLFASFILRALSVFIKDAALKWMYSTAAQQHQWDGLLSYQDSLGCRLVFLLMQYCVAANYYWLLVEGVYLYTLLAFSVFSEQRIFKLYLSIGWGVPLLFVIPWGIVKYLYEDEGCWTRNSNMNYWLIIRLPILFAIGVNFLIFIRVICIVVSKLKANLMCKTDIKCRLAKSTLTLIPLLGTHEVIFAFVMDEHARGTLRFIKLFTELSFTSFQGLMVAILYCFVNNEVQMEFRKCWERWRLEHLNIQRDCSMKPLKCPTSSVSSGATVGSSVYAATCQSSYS

mGLP‐1 receptor [2] = molecular target: T1, mGLP‐1 receptor; remark: listed apart in the source
mGLP‐1 receptor [3] = molecular target: T1, mGLP‐1 receptor; settings: one partner purified
rGLP‐2 receptor [4] = molecular target: T2, rGLP‐2 receptor (rat, UniProt Q9Z0W0 1-550); settings: one partner purified
T2 construct: rat glucagon-like peptide-2 receptor, pcDNA3.1(+) plasmid from ThermoFisher; also called rat GLP‐2 receptor; source: COS-7, transiently transfected (pcDNA3.1(+)), on whole cells
T2 sequence (looked up): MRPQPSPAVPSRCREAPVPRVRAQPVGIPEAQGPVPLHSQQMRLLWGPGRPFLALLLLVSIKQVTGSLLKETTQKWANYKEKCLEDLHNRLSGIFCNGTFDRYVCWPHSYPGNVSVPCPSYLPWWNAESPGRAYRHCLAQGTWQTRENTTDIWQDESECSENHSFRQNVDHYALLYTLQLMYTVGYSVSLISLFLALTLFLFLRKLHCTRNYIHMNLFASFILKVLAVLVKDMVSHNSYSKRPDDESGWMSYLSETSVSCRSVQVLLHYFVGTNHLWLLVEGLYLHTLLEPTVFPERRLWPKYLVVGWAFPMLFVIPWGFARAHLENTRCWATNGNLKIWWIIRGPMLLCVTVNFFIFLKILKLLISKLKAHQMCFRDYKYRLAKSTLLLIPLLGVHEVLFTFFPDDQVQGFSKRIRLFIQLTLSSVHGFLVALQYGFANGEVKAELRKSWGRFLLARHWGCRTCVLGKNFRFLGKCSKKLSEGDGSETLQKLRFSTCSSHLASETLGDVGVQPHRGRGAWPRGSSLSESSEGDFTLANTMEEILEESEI

mGLP‐2 receptor [5] = molecular target: T3, mGLP‐2 receptor (mouse, UniProt Q5IXF8 1-512); settings: one partner purified
T3 construct: mouse glucagon-like peptide-2 receptor, pcDNA3.1(+) plasmid from ThermoFisher; also called mouse GLP‐2 receptor; source: COS-7, transiently transfected (pcDNA3.1(+)), on whole cells
T3 sequence (looked up): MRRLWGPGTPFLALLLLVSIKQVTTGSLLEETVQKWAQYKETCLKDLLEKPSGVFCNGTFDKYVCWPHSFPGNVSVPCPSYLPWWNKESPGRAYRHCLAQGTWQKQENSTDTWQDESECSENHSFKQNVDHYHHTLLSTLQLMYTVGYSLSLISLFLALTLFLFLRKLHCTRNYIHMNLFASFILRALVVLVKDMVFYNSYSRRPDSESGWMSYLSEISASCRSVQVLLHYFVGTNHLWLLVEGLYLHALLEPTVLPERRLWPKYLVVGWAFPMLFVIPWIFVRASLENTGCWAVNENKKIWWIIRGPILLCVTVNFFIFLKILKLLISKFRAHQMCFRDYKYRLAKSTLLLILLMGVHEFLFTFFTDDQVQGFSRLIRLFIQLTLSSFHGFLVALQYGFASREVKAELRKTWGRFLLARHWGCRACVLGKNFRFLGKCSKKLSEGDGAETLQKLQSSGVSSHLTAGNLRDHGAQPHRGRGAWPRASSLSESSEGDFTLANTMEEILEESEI

mGLP‐1 receptor [6] = molecular target: T1, mGLP‐1 receptor; settings: one partner purified; remark: listed apart in the source
rGLP‐2 receptor [7] = molecular target: T2, rGLP‐2 receptor; settings: one partner purified; remark: listed apart in the source
mGLP‐2 receptor [8] = molecular target: T3, mGLP‐2 receptor; settings: one partner purified; remark: listed apart in the source

- % max (specific binding of the radioligand, normalised to its binding to the mGLP-2 receptor) (mGLP‐1 receptor [1]): 93.3%
Molecule: [^125I]‐hGLP‐2(3–33,M10Y) (peptide)

- % max (specific binding of the radioligand, normalised to its binding to the mGLP-2 receptor) (mGLP‐1 receptor [2]): 84.5%
Molecule: [^125I]‐hGLP‐2(1–33,M10Y) (peptide)

- Ki (mGLP‐1 receptor [3]): 208 nM
- pIC50 (mGLP‐1 receptor [3]): 6.7
- Ki (rGLP‐2 receptor [4]): 5.4 nM
- pIC50 (rGLP‐2 receptor [4]): 8.3
- Ki (mGLP‐2 receptor [5]): 6.6 nM
- pIC50 (mGLP‐2 receptor [5]): 8.2
- Ki (mGLP‐1 receptor [6]): 183 nM
- pIC50 (mGLP‐1 receptor [6]): 6.7
- Ki (rGLP‐2 receptor [7]): 6.5 nM
- pIC50 (rGLP‐2 receptor [7]): 8.2
- Ki (mGLP‐2 receptor [8]): 18 nM
- pIC50 (mGLP‐2 receptor [8]): 7.7
Molecule: HADGSFSDEMNTILDNLAARDFINWLIQTKITD [hGLP‐2(1–33)]
